# Laboratory results: patent US20050288492A1 (MEDICAL RESEARCH COUNCIL, published 2005)
# B1: anti-RAS scFv33 (scFv)
# scFv: QVQLVEAGGGLVQPGGSLRLSCAASGFSFSTFSMNWVRQAPGKGLEWVSYISSSGRTIYYADSVKGRFTISRDNAKNSLYLQMNSLRDEDTAVYYCARGRFFDYWGQGTLVTVSSGGGGSGGGGSGGGGSDIVMTQSPSFLSASVGDRVTITCRASQSISRYLNWYQQKPGKAPKLLIYAASSLQSGVPSRFSGSGSGTDFTLTISSLQPEDFAIYYCQQSYSTLLTFGGGTKLEIKR
# notes: ELISA and BIAcore: purified from periplasm with C-terminal His6-tag and myc-tag; Two-hybrid: fused to VP16 AD; Co-location: with nls and myc-tag; also called ICAb 33
# B2: anti-RAS scFv J48 (scFv)
# scFv: QVQLVEAGGGLVQPGGSLRLSCAASGFSFSYLYMNWVRQAPGKGLEWVSYISSSGRTIYYADSVKGRFTISRDNAKNSLYLQMNSLRDEDTAVYYCARGRFFDYWGQGTLVTVSSGGGGSGGGGSGGGGSDIVMTQSPSFLSASVGDRVTITCRASQSISRYLNWYQQKPGKAPKLLIYAASSLQSGVPSRFSGSGSGTDFTLTISSLQPEDFAIYYCQQSYSTLLTFGGGTKLEIKR
# notes: Same formats as scFv33 (His6/myc purified; VP16 fusion; nls-myc)
# B3: IDab anti-RAS #6 (other)
# VH: EVQLLESGGGLVQPGGSLRLSCAASGFSFSTFSMNWVRQAPGKGLEWVSYISRTSKTIYYADSVKGRFTISRDNSKNTLYLQMNSLRAEDTAVYYCARGRFFDYWGQGTLVTVSS
# B4: IDab anti-RAS #12 (other)
# VH: EVQLLESGGGLVQPGGSLRLSCAASGFSFSVWAMSWVRQAPGKGLEWVSYISRTSKTIYYADSVKGRFTISRDNSKNTLYLQMNSLRAEDTAVYYCARGRFFDYWGQGTLVTVSS
# B5: IDab 33 (single VH domain of anti-RAS scFv33) (other)
# VH: QVQLVEAGGGLVQPGGSLRLSCAASGFSFSTFSMNWVRQAPGKGLEWVSYISSSGRTIYYADSVKGRFTISRDNAKNSLYLQMNSLRDEDTAVYYCARGRFFDYWGQGTLVTVSS
# notes: also called 33VH; VH from intrabody anti-RAS scFv33
# B6: anti-RAS scFv I21 (scFv)
# scFv: EVQLLESGGGLVQPGGSLRLSCAASGFTFSSYAMSWVRQAPGKGLEWVSTISYGGSNTNYADSVKARFTISRDNSKNTLYLQMNSLRAEDTAVYYCAKGNNAFDYWGQGTLVTVSSGGGGSGGGGSGGGGSTDIQMTQSPSSLSASVGDRVTITCRASQSISSYLNWYQQKPGKAPKLLIYNASALQSGVPSRFSGSGSGTDFTLTISSLQPEDFATYYCQQYTSTPRTFGQGTKVEIKR
# notes: also called ICAb I21
# B7: IDab anti-RAS #3 (other)
# VH: QVQLVESGGGLVQPGGSLRLSCAASGFTFSSYAMHWVRQAPGKGLEWVSVISKLTHHTYYADSVKGRFTISRDNSKNTLYLQMNSLRAEDTAVYYCARGVQGYVHGLKGNWFDYWGQGTLVTVSS
# notes: also called anti-RAS clone #3; clone 3
# Key:
# [1] = molecular target: T1, Gal4 DBD fused to HRASG12V (codons 1-166) (mammalian bait from pM1-HRASG12V) (UniProt P04386 1-147; P01112 1-166); assay: cell-based or functional assay
# [2] = molecular target: T2, Recombinant activated HRAS (G12V; residues 1-166), GppNp-bound (human, UniProt P01112 1-166, loaded with 5'-guanylylimidodiphosphate (GppNp), a non-covalent nucleotide); assay: SPR (BIAcore 2000), Example 12
# T2 construct: range 1-166; Antigen of the ELISA and BIAcore assays; also called HRASG12V-GppNp; RASG12V-GppNp
# [3] = molecular target: T3, LexA DBD (made from the empty pBTM116 vector) (UniProt P0A7C2 1-202); assay: yeast two-hybrid, scFv-VP16 prey (data not shown)
# T3 construct: domain: LexA DBD; Yeast bait control
# T3 sequence (looked up): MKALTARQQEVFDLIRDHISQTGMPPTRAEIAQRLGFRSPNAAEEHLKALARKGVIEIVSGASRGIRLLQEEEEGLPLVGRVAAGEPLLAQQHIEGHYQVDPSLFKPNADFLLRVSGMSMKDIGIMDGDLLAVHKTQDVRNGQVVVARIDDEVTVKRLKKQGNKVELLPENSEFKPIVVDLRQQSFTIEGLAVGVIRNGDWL
# [4] = molecular target: β-galactosidase (non-relevant antigen bait in yeast) (UniProt P00722 1-1024 = β-galactosidase, limits assumed); assay: yeast two-hybrid, scFv-VP16 prey (data not shown)
# [5] = molecular target: T2, Recombinant activated HRAS (G12V; …); assay: SPR (BIAcore 2000), purified His-tagged fragment on RAS antigen
# [6] = molecular target: T2, Recombinant activated HRAS (G12V; …); assay: SPR, BIAcore 2000; HRASG12V-GppNp immobilised, purified scFv injected; BIAevaluation 2.1
# [7] = molecular target: T2, Recombinant activated HRAS (G12V; …); assay: SPR (BIAcore 2000), HRASG12V-GppNp immobilised (about 1500 RU), purified scFv as analyte, Example 4; Example 4, BIAcore, FIG. 6B
# BSA = molecular target: T4, BSA (bovine, UniProt P02769); assay: ELISA; BSA coated at 30 mg/ml, purified His-tagged scFv, detection with HRP anti-polyhistidine, absorption 450-650 nm
# T4 construct: coated on the ELISA plate at 30 mg/ml as control antigen; also called bovine serum albumin
# [8] = molecular target: HRASG12V expressed in NIH3T3 cells from pZIPneoSV(X)-HRASG12V (UniProt P01112 1-186, limits assumed); assay: cell-based or functional assay
# [9] = molecular target: T1, Gal4 DBD fused to HRASG12V (codons …); assay: COS7 luciferase reporter with HRAS, KRAS or NRAS (data not shown)
# [10] = molecular target: T2, Recombinant activated HRAS (G12V; …); assay: SPR (BIAcore 2000), HRASG12V-GppNp immobilised (about 1500 RU), purified scFv as analyte, Example 4
Binder,luciferase reporter activation in COS7 cells [1] [fold],Kd [2] [nM],binding result [3],binding result [4],koff [5] [s⁻¹],kon [5] [M⁻¹ s⁻¹],Kd [6] [nM],koff [6] [s⁻¹],kon [6] [M⁻¹ s⁻¹],Kd [7] [nM],binding result (BSA),"transforming activity in NIH3T3 cells, relative to HRASG12V alone [8] [%]",binding result [9],Kd [10] [nM]
B1,> 10,~10,no binding,no binding,0.00113,176000,9.97,0.00113,176000,1.39,no binding (tested: 450 ng per well (legend)),,,
B2,> 10,,no binding,no binding,,,2.6,0.00482,1.87e+06,3.63,no binding (tested: 450 ng per well (legend)),,,
B3,,,,,,,,,,,,< 10,,
B4,,~26,,,,,,,,,,,binds,
B5,,~90,,,0.0144,12500,,,,,,,,
B6,,,no binding,no binding,,,1310,0.0212,16700,,no binding (tested: 450 ng per well (legend)),,,2160
B7,,~180,,,0.00104,5660,,,,,,,,
